In the DeepSol protein solubility set:

experiment: soluble on expression in E. coli; label from the status in PepcDB or PDB records

Sequence	soluble on expression in E. coli
MNILLLDGGKAFGHSHGGLNRTLHKKAKEVLTALGHNVQETVIDAGYDVEAEIEKFVWMDAVIWQMPGWWMHEPWTVKKYIDEVLTAGHGKLYQSDGRHSVNPTEGYGTGGLLQGKKHMISLTWNAPIEAFTREGDFFEGKGVDVLYMHFHKANEFLGMTRLPTFLCNDVVKNPQVEKYLADYQAHLEKVFG	not soluble
MSEISQLTPQPLWQFFDKICSIPHPSKHEEALAQYIIEWATTEGLDVRRDPTGNVFIKKPATPGMEDRKGVVLQAHIDMVPQKNEDTEHDFTKDPIQPYIDGEWVTAKGTTLGADNGMGMASCLAVLASKELKHGPLEVLLTIDEEAGMTGAFGLEAGWLEGDILLNTDSEQEGEVYMGCAGGADGAIKLDIEREALPSGYITRQITLKGLKGGHSGCDIHTGRGNANKLLGRFLAGHAQELDLRLVEFRGGSLRNAIPREAFATIAVPAENEAKLAELFTFYTNLLKDELGKVETDIVSFNETASAEQVLTKITQSRFIATLNACPNGVIRMSDDIEGVVETSLNVGVITTDENSITILCLIRSLMDSGRSMVEGMLSSVAELAGAQVTFSGTYPGWKPDADSEIMHVFRDVYEGIYGNKPNIMVIHAGLECGLFKKPYPEMDMISFGPTIKFPHSPDEKVKIDTVALYWEQMVAILENIPKKLEHHHHHH	soluble
MSLDGTVLVADDDRTIRTVLTQALTRAGCKVHATSSLTTLMRWVAEGKGDVVISDVVMPDGNGLEMLPKIAQDRPGLPVIVISAQNTIMTAIQAAEAEAYDYLPKPFDLPDLMKRTARALEQKRRTVSSEPREEGAERPDELPLVGRTPAMQALYRLVAKVMNTDLPVMISGESGTGKSLIARTIHDFSDRRTLPFISVTASDLMDLEGPARVLARVKGGTLLIDEIADIGDELQGRIVRMMDAPGDYVPRFMATSQGDPARAMEAGKLRRDLYYRLCGAPIHVPALRERVDDIPLLTEYFLAKAERDGAPKRWLGAGAAELFRIYSWPGNVRQLENAVRRLSLISRAEEISRTEVEQVLGNQPELEPALGGRGDSEKLSASVARHLQRYFDLHGNVLPPPGLYQRILREVEAPLIEIALEASGGNQAKCADLLGINRNTLRKKITDLDIEVTREGHHHHHH	soluble
LAQRAGILCREFAIGFGPKIFSFKKNETVYTIRLLPVGGFVRMAGEDPEMIEVKPGYTVGLLFNKEDQVEKVIINQKEKYPDALVIEVETADLEHDMKITGYEQGKEDELSSFTVSETSFFIVDGEEVQIAPYNRQFGSKPVWQRIKA	not soluble
MSSGLEDNLQLLGGNVTLLEQEAQKLANETKAGVYVVTTDSSTPASQMAKTYLADKVGAKNNGVVLVINMNLRKVYIWATGNLKYYLPSSRIEKTLDIVQPELTDNNYYQAVSGFFDQVSKYYQAGLEHHHHHH	not soluble
MKELHTSELVEVSGGKFHIFAQGGGNLGKKDMVAVGKIGASYSPNNSGVEFSVSKQFGYVQGLGVQFSKPTFGISKKW	not soluble
DTTKNIFIEGDNLDALKLLQENYLGKIKMVYIDPPYNTGNDFVYADDFVDEVSEFFLRSNQVDREGNRLTANPETSGRFHSDWLSMMYSRLKLSRNLLRDDGLIVIHIDENEYPNLEKLLAEIYGEKNNLGTIVWDKRNPKGDATGVAQQHELICIYCKDREFFKTTCEFQRPKENAGKMLAKAKQILSKEGGVTEKARKEYKDWVNQQDLTGGEKAYNQIDDNGDVFRPVSMAWPNKKKAPEDYFIPLIHPVTGKECPVPERGWRNPPATMQELLKSGLIIFGPDEKTQPTRKYRLNDNLFENIPSLLYYGGSDDALLADLKIPFDTPKPVQVAKRLIQSICKNDDILIDFFAGSCTAAHALMLLNAEDGANRRFIMVQLPEECDEKSEAKKLGYSVVSEIGKNRIRRAAKKIREEFSEILATRNTELDLGFRLLKVDTSNMAD	not soluble
MDNTRIMAAREAGVKVEANVHNFNDRLSSKERIRFKHDGIEPQTWGEAIQLRIRKQETQKGVPEGWSKRFPNGSIYDVKVLRK	not soluble
MSLTLPSEKPATDVAAQCFLNALIRETTDWKLTEYPPDELIIPLDEQKSLHFRVAYFSPTQHHRFAFPARLVTASGSYPVDFTTLSRLIIDKLRHQLFLPVPLCETFHQRVLESHAHTQQAIDARHDWTALREKALNFGEAEQALLTGHAFHPAPKSHEPFNRREAERYLPDMAPHFPLRWFSVDKTQIAGESLHLNLQQRLTRFAAENAPQLLNELSDNQWLFPLHPWQGEYLLQQGWCQALVAKGLIKDLGEAGTSWLPTTSSRSLYCATSRDMIKFSLSVRLTNSIRTLSVKEVKRGMRLARLAQTDGWQMLQVRFPTFRVMQEDGWAGLLDLNGNIMQESLFALRENLLVDQPKSQTNVLVSLTQAAPDGGDSLLVSAVKRLSDRLGITVQQAAHAWVDAYCQQVLKPLFTAEADYGLVLLAHQQNILVQMLGDLPVGFIYRDCQGSAFMPHATDWLDSIGEAQAENEGHHHHHH	not soluble
MERNMKNKNKMLDLMLEAVNNIKDAMPKMQIGAPVRQNIDAGERPCLQGYYTAAELKPVLDRPPQDSNAPGASGKAFKTTNLSVEEQKEKERGEAKHCFNAFASDRISLHRDLGPDTRPPEYVEEYLLFILYHQALQGREG	not soluble
MGSDKIHHHHHHMDSNYTKAGYLTEPFKIFHLRDEHKLNIDFHYHDFHKILIHLHGNVSYCIEGRSYELKEHDIVLVNAGEVHKPILNDDSIYERIIIYVSQQLIDDYVSKGYDLACCFKQAYANQSHVLRLAATKGSRLADTIKGLDSTLRETNEYANELYQKLLFLEFLIQLNRITLHGGIEYINTFSSNKKIVEILDFLNKNLTNRISIDELADKFYMSRYHLMHTFKEETGCTIGSYITTKRLLLARDMIRDGSSVSAACDACGFGSYSSFIRAYRKQFHSTPTNT	not soluble
MSTARFADPDQIRAGFSRAMSQMYQHEVPLYGTLMELVSEVNAQVMSRDSQVLNSLRQTGEIQRLDMERHGAIRVGTAQELATLARLFAVMGMQPVGYYDLTAAGVPVHSTAFRAVHEQALQVSPFRVFTSLLRLELIESDSLREFASRVLAKRTIFTPGALALIEKHEADGGLSEPDAAEFIQQALETFRWHHTATVSLDEYRQLNAQHRLIADVVAFRGPHINHLTPRTLDIDAVQSGMPGKGITPKAVVEGPPPRQCPILLRQTSFKALEEPISFIGQGGSQSGSHSARFGEIEQRGAALTPKGRELYDRLLNEARDALGEFPNEANAVRYAGLLEKAFQAFPDSHDEMRAQGLAYFRYFPTDTGVAVRVSGTLEQLIEAGHVRFEPLAYEDFLPVSAAGIFQSNLGDNAQAHYAANSNRQDFERALGRGTLDELALYADTQRRSLEDCAEVLGLNESLEHHHHHH	not soluble
MGSDKIHHHHHHMQIKEFLISRRSEVVNNFYDNYYTQTDEYKLRLSAGEDEQSIRSLSTASCGMIIDVITGVKERDFENIGKRRFNDKTDIRKIHQHMSEIDKFIINSLLKWKETEDVFYTDADIIQFMLEIKDTLASIQQQLLEGFMQENRNQVMAQRKEIIQLSTRIIPITDSIGVLPIVGSLDDDRGYFMKEKAIESADKLNLDFIVIDFSSAVLKDDFATKHMEDMIQSFKLIGLIPILSGMQPSFAQRTIQVGSNISKLQSFGSLEQALTNLGL	not soluble
MGSDKIHHHHHHMYPKNTWYVACTPDEIATKPLGRQICGEKIVFYRARENQVAAVEDFCPHRGAPLSLGYVEDGNLVCGYHGLVMGCDGKTVSMPGQRVRGFPCNKTFAAVERYGFIWVWPGDQAQADPALIPHLEWAVSDEWAYGGGLFHIGCDYRLMIDNLMDLTHETYVHASSIGQKEIDEAPPVTTVTGDEVVTARHMENIMAPPFWRMALRGNGLADDVPVDRWQICRFTPPSHVLIEVGVAHAGKGGYHAEAQHKASSIVVDFITPESDTSIWYFWGMARNFAAHDQTLTDNIREGQGKIFSEDLEMLERQQQNLLAHPERNLLKLNIDAGGVQSRKVLERIIAQERAPQPQLIATSANPA	not soluble
